Assay results taken from US11471462B2, “Compositions and methods for detecting and treating diabetes” (THE BROAD INSTITUTE, INC., priority 2016, dated 2022).

B1: HSDI7B12 (protein, UniProt Q53GQ0 1-312, looked up)
Very-long-chain 3-oxoacyl-CoA …: MESALPAAGFLYWVGAGTVAYLALRISYSLFTALRVWGVGNEAGVGPGLGEWAVVTGSTDGIGKSYAEELAKHGMKVVLISRSKDKLDQVSSEIKEKFKVETRTIAVDFASEDIYDKIKTGLAGLEIGILVNNVGMSYEYPEYFLDVPDLDNVIKKMININILSVCKMTQLVLPGMVERSKGAILNISSGSGMLPVPLLTIYSATKTFVDFFSQCLHEEYRSKGVFVQSVLPYFVATKLAKIRKPTLDKPSPETFVKSAIKTVGLQSRTNGYLIHALMGSIISNLPSWIYLKIVMNMNKSTRAHYLKKTKKN
B2: TMEM33 (protein)
chain: ADTTPNGPQGAGAVQFMMTNKLDTAMWLSRLFTVYCSALFVLPLLGLHEAASFYQRALLANALTSALRLHQRLPHFQLSRAFLAQALLEDSCHYLLYSLIFVNSYPVTMSIFPVLLFSLLHAATYTKKVLDARGSNSLPLLRSVLDKLSANQQNILKFIACNEIFLMPATVFMLFSGQGSLLQPFIYYRFLTLRYSSRRNPYCRTLFNELRIVVEHIIMKPACPLFVRRLCLQSIAFISRLAPTVP
B3: SLC16A11 (protein, UniProt Q8NCK7 1-471, looked up)
Monocarboxylate transporter 11: MPAPQRKHRRGGFSHRCFPTPQTAMTPQPAGPPDGGWGWVVAAAAFAINGLSYGLLRSLGLAFPDLAEHFDRSAQDTAWISALALAVQQAASPVGSALSTRWGARPVVMVGGVLASLGFVFSAFASDLLHLYLGLGLLAGFGWALVFAPALGTLSRYFSRRRVLAVGLALTGNGASSLLLAPALQLLLDTFGWRGALLLLGAITLHLTPCGALLLPLVLPGDPPAPPRSPLAALGLSLFTRRAFSIFALGTALVGGGYFVPYVHLAPHALDRGLGGYGAALVVAVAAMGDAGARLVCGWLADQGWVPLPRLLAVFGALTGLGLWVVGLVPVVGGEESWGGPLLAAAVAYGLSAGSYAPLVFGVLPGLVGVGGVVQATGLVMMLMSLGGLLGPPLSGFLRDETGDFTASFLLSGSLILSGSFIYIGLPRALPSCGPASPPATPPPETGELLPAPQAVLLSPGGPGSTLDTTC
B4: SACM1L (protein)
chain: MATAAYEQLKLHITPEKFYVEACDDGADDVLTIDRVSTEVTLAVKKDVPPSAVTRPIFGILGTIHLVAGNYLIVITKKIKVGEFFSHVVWKATDFDVLSYKKTMLHLTDIQLQDNKTFLAMLNHVLNVDGFYFSTTYDLTHTLQRLSNTSPEFQEMSLLERADQRFVWNGHLLRELSAQPEVHRFALPVLHGFITMHSCSINGKYFDWILISRRSCFRAGVRYYVRGIDSEGHAANFVETEQIVHYNGSKASFVQTRGSIPVFWSQRPNLKYKPLPQISKVANHMDGFQRHFDSQVIIYGKQVIINLINQKGSEKPLEQTFATMVSSLGSGMMRYIAFDFHKECKNMRWDRLSILLDQVAEMQDELSYFLVDSAGQVVANQEGVFRSNCMDCLDRTNVIQSLLARRSLQAQLQRLGVLHVGQKLEEQDEFEKIYKNAWADNANACAKQYAGTGALKTDFTRTGKRTHLGLIMDGWNSMIRYYKNNFSDGFRQDSIDLFLGNYSVDELESHSPLSVPRDWKFLALPIIMVVAFSMCIICLLMAGDTWTETLAYVLFWGVASIGTFFIILYNGKDFVDAPRLVQKEKID
B5: HSD17B12 (protein)
chain: B1 Very-long-chain 3-oxoacyl-CoA …
B6: BAG2 (protein)
chain: AQAKINAKANEGRFCRSSSMADRSSRLLESLDQLELRVEALREAATAVEQEKEILLEMIHSIQNSQDMRQISDGEREELNLTANRLMGRTLTVEVSVETIRNPQQQESLKHATRIIDEVVNKFLDDLGNAKSHLMSLYSACSSEVPHGPVDQKFQSIVIGCALEDQKKIKRRLETLLRNIENSDKAIKLLEHSKGAGSKTLQQNAESRFN
B7: CANX (protein)
chain: HDGHDDDVIDIEDDLDDVIEEVEDSKPDTTAPPSSPKVTYKAPVPTGEVYFADSFDRGTLSGWILSKAKKDDTDDEIAKYDGKWEVEEMKESKLPGDKGLVLMSRAKHHAISAKLNKPFLFDTKPLIVQYEVNFQNGIECGGAYVKLLSKTPELNLDQFHDKTPYTIMFGPDKCGEDYKLHFIFRHKNPKTGIYEEKHAKRPDADLKTYFTDKKTHLYTLILNPDNSFEILVDQSVVNSGNLLNDMTPPVNPSREIEDPEDRKPEDWDERPKIPDPEAVKPDDWDEDAPAKIPDEEATKPEGWLDDEPEYVPDPDAEKPEDWDEDMDGEWEAPQIANPRCESAPGCGVWQRPVIDNPNYKGKWKPPMIDNPSYQGIWKPRKIPNPDFFEDLEPFRMTPFSAIGLELWSMTSDIFFDNFIICADRRIVDDWANDGWGLKKAADGAAEPGVVGQMIEAAEERPWLWVVYILTVALPVFLVILFCCSGKKQTSGMEYKKTDAPQPDVKEEEEEKEEEKDKGDEEEEGEEKLEEKQKSDAEEDGGTVSQEEEDRKPKAEEDEILNRSPRNRKPRRE
B8: DDOST (protein)
chain: SGPRTLVLLDNLNVRETHSLFFRSLKDRGFELTFKTADDPSLSLIKYGEFLYDNLIIFSPSVEDFGGNINVETISAFIDGGGSVLVAASSDIGDPLRELGSECGIEFDEEKTAVIDHHNYDISDLGQHTLIVADTENLLKAPTIVGKSSLNPILFRGVGMVADPDNPLVLDILTGSSTSYSFFPDKPITQYPHAVGKNTLLIAGLQARNNARVIFSGSLDFFSDSFFNSAVQKAAPGSQRYSQTGNYELAVALSRWVFKEEGVLRVGPVSHHRVGETAPPNAYTVTDLVEYSIVIQQLSNGKWVPFDGDDIQLEFVRIDPFVRTFLKKKGGKYSVQFKLPDVYGVFQFKVDYNRLGYTHLYSSTQVSVRPLQHTQYERFIPSAYPYYASAFSMMLGLFIFSIVFLHMKEKEKSD
B9: SEC61A2 (protein)
chain: MGIKFLEVIKPFCAVLPEIQKPERKIQFREKVLWTAITLFIFLVCCQIPLFGIMSSDSADPFYWMRVILASNRGTLMELGISPIVTSGLIMQLLAGAKIIEVGDTPKDRALFNGAQKLFGMIITIGQAIVYVMTGMYGDPAEMGAGICLLIIIQLFVAGLIVLLLDELLQKGYGLGSGISLFIATNICETIVWKAFSPTTINTGRGTEFEGAVIALFHLLATRTDKVRALREAFYRQNLPNLMNLIATVFVFAVVIYFQGFRVDLPIKSARYRGQYSSYPIKLFYTSNIPIILQSALVSNLYVISQMLSVRFSGNFLVNLLGQWADVSGGGPARSYPVGGLCYYLSPPESMGAIFEDPVHVVVYIIFMLGSCAFFSKTWIEVSGSSAKDVAKQLKEQQMVMRGHRDTSMVHELNRYIPTAAAFGGLCIGALSVLADFLGAIGSGTGILLAVTIIYQYFEIFVKEQAEVGGMGALFF
B10: SURF4 (protein)
chain: GQNDLMGTAEDFADQFLRVTKQYLPHVARLCLISTFLEDGIRMWFQWSEQRDYIDTTWNCGYLLASSFVFLNLLGQLTGCVLVLSRNFVQYACFGLFGIIALQTIAYSILWDLKFLMRNLALGGGLLLLLAESRSEGKSMFAGVPTMRESSPKQYMQLGGRVLLVLMFMTLLHFDASFFSIVQNIVGTALMILVAIGFKTKLAALTLVVWLFAINVYFNAFWTIPVYKPMHDFLKYDFFQTMSVIGGLLLVVALGPGGVSMDEKKKEW

Tested on: SLC16A11
Experiment: SLC16A11 protein-protein interaction study (immunoprecipitation, quantitative mass spectrometry)
Parameters: species or system human
Conditions: enrichment of protein immunoprecipitated from HEK293T cells expressing P2D SLC16A11^REF-V5 vs empty vector control; Blandt-Altman; quantitative mass spectrometry
Excerpt: Alternatively, these variants may result in reduced transport because they disrupt protein-protein interactions responsible for correct SLC16A11 function. To explore this possibility, SLC16A11 was immunoprecipitated from HEK293T cells expressing either REF or T2D risk SLC16A11-V5 or empty vector control and quantitative mass spectrometry was used to define the SLC16A11 interactome.
Another mechanism through which the variants could affect activity is through disruption of protein-protein interactions. To explore this possibility, quantitative mass spectrometry-based protein-protein interaction studies were performed to define the SLC16A11 interactome and evaluate if the T2D risk coding variants alter any interactions.
Beads were then washed once with lysis buffer and three times with wash buffer. After the last wash, residual wash buffer was removed, 10 μL fresh wash buffer was added, and beads were stored at −80° C. until analysis by the Proteomics Platform at the Broad Institute, as detailed in the “Proteomics Methods for SLC16A11 Protein Interaction Studies” below.
The beads from immunopurification were washed once with IP lysis buffer, then three times with PBS, the three different lysates of each replicate were resuspended in 90 uL digestion buffer (2M Urea, 50 mM Tris HCl), 2 ug of sequencing grade trypsin added, 1 hour shaking at 700 rpm. The supernatant was removed and placed in a fresh tube. The beads were then washed twice with 50 uL digestion buffer and combined with the supernatant. The combined supernatants were reduced (2 uL 500 mM DTT, 30 minutes, RT), alkylated (4 uL 500 mM IAA, 45 minutes, dark) and a longer overnight digestion performed: 2 ug (4 uL) trypsin, shake o/n, The samples were then quenched with 20 uL 10% FA and desalted on 10 mg SepPak columns.
Desalted peptides were labelled with iTRAQ reagents according to the manufacturer's instructions (AB Sciex, Foster City, Calif.). Peptides were dissolved in 30 μl of 0.5 M TEAB pH 8.5 solution and labeling reagent was added in 70 ul of ethanol. After 1 h incubation the reaction was stopped with 50 mM Tris/HCl pH 7.5. Differentially labelled peptides were mixed and subsequently desalted on 10 mg SepPak columns.
Reconstituted peptides were separated on an online nanoflow EASY-nLC 1000 UHPLC system (Thermo Fisher Scientific) and analyzed on a benchtop Orbitrap Q Exactive Plus mass spectrometer (Thermo Fisher Scientific). The peptide samples were injected onto a capillary column (Picofrit with 10 μm tip opening/75 μm diameter, New Objective, PF360-75-10-N-5) packed in-house with 20 cm C18 silica material (1.9 μm ReproSil-Pur C18-AQ medium, Dr. Maisch GmbH, r119.aq). The UHPLC setup was connected with a custom-fit microadapting tee (360 μm, IDEX Health & Science, UH-753), and capillary columns were heated to 50° C. in column heater sleeves (Phoenix-ST) to reduce backpressure during UHPLC separation. Injected peptides were separated at a flow rate of 200 nL/min with a linear 80 min gradient from 100% solvent A (3% acetonitrile, 0.1% formic acid) to 30% solvent B (90% acetonitrile, 0.1% formic acid), followed by a linear 6 min gradient from 30% solvent B to 90% solvent B. Each sample was run for 120 min, including sample loading and column equilibration times. The Q Exactive instrument was operated in the data-dependent mode acquiring HCD MS/MS scans (R=17,500) after each MS1 scan (R=70,000) on the 12 top most abundant ions using an MS1 ion target of 3×10^6 ions and an MS2 target of 5×10^4 ions. The maximum ion time utilized for the MS/MS scans was 120 ms; the HCD-normalized collision energy was set to 27; the dynamic exclusion time was set to 20 s, and the peptide match and isotope exclusion functions were enabled.
All mass spectra were processed using the Spectrum Mill software package v6.0 pre-release (Agilent Technologies) which includes modules developed by us for iTRAQ-based quantification. […]

Molecule	B.A. logFC
B1	1.26

Same assay, conditions: putative SLC16A11^REF interaction partners; immunoprecipitation from HEK293T cells vs empty vector control; Blandt-Altman

Molecule	BA log fold change
B2	1.25
B3	1.34
B4	1.26
B5	1.26
B6	1.26
B7	1.38
B8	1.65
B9	1.59
B10	1.33
